Laboratory results reported in patent US20130089555A1 (Genentech, published 2013).

Legend:
[1] = biological target: T1, cynomolgus FcRH5 on stably transfected SVT2 cells (cynomolgus monkey); experiment: Scatchard, 125I-labelled antibody competed with the unlabelled same antibody on SVT2.cyFcRH5 cells, 4 C; St. Error 1.340
T1 construct: also called cyno FcRH5; cynoFcRH5
T1 chain: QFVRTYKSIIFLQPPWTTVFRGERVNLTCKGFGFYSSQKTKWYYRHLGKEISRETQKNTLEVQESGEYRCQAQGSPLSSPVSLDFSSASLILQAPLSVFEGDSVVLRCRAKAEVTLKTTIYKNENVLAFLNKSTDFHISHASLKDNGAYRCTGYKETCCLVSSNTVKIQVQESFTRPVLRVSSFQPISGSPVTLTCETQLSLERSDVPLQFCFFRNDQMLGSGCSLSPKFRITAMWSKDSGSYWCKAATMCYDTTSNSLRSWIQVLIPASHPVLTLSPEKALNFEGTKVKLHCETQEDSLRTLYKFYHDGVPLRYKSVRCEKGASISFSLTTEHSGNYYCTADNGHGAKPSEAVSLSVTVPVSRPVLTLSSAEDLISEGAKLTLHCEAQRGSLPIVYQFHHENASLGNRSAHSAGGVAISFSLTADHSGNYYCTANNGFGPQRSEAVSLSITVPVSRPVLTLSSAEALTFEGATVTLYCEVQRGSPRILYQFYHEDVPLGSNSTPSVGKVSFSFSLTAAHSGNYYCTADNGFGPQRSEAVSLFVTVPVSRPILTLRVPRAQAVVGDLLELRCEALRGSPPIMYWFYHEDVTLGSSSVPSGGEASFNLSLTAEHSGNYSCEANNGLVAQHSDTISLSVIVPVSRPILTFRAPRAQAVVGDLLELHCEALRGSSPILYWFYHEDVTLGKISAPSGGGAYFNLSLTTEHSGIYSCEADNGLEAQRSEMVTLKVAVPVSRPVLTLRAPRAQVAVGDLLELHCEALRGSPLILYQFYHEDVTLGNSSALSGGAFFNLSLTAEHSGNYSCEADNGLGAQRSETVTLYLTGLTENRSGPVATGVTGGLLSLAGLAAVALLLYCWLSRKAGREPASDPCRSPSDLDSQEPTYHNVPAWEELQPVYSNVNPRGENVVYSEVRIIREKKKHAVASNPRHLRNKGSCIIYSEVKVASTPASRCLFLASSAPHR
Method: (§1) To further determine binding of the FcRH5 murine antibodies and IgG clones, binding of iodinated IgG variants to OPM2 cells expressing human FcRH5 and SVT2 cells expressing cynomologous FcRH5, Scatchard analysis was performed.
(§2) For Scatchard analysis, 0.5 nM I¹²⁵ labeled murine or IgG clone anti-FcRH5 was competed against unlabeled murine or IgG clone anti-FcRH5, respectively, ranging from 50 to 0.02 nM (12 step 1:2 serial dilution) in the presence of a transfected OPM2 line stably expressing human-FcRH5 and a transfected SVT2 line stably expressing cynomologous-FcRH5. After a four hour incubation at 4° C., cells were washed and cell pellet counts were read by a gamma counter (1470 WIZARD Automatic Gamma Counter; Perkin Elmer, Walthem, Mass.). All points were done in triplicate and counted for 10 minutes. The average CPM was used for Kd calculation using the New Ligand (Genentech, South San Francisco, Calif.) program.

[2] = biological target: T2, human FcRH5 on stably transfected cells (BJAB, OPM2) (human, UniProt Q96RD9 16-977); experiment: Scatchard, 125I-labelled antibody competed with the unlabelled same antibody on OPM2.huFcRH5 cells, 4 C; St. Error 0.150
T2 construct: Cells were transfected with pRK.CMV.PD.nbe.FcRH5 (untagged); also called huFcRH5; BJAB.huFcRH5
T2 chain: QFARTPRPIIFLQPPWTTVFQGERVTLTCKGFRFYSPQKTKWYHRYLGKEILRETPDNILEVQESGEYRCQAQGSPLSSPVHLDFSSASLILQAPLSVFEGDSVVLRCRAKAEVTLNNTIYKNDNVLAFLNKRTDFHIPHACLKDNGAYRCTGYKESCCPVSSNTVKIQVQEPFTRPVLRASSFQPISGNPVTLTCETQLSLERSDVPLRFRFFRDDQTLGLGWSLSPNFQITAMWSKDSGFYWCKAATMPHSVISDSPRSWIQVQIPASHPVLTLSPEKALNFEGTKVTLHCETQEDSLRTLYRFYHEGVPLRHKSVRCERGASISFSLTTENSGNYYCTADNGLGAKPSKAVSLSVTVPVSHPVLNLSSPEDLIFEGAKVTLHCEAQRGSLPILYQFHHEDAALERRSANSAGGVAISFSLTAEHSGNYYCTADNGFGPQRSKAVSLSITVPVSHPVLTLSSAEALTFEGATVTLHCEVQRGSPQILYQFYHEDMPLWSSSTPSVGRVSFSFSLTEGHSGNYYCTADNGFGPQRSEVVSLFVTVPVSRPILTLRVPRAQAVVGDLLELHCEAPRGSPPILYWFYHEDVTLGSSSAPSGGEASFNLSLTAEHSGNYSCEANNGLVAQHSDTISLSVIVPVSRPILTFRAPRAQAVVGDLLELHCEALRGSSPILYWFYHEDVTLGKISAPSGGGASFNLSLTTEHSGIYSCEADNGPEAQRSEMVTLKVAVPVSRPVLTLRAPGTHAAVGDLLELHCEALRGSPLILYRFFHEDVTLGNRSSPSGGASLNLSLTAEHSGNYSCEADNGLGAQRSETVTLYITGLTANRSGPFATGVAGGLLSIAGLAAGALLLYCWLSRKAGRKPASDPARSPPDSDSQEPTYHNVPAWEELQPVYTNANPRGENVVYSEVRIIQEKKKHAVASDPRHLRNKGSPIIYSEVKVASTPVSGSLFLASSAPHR
Method: as §1, §2

[3] = biological target: T3, human FcRH5 (PRO52387; FcRH5c/IRTA2c), antigen as used in Biacore and in hybridoma screening (human, UniProt Q96RD9 16-851, limits assumed); experiment: SPR (Biacore 2000), IgG captured on anti-murine IgG chip, FcRH injected, 1:1 Langmuir fit, 25 C
T3 construct: The Biacore text only says that 'various FcRHs were injected'; also called Hu antigen; FcRH5/IRTA2
T3 chain: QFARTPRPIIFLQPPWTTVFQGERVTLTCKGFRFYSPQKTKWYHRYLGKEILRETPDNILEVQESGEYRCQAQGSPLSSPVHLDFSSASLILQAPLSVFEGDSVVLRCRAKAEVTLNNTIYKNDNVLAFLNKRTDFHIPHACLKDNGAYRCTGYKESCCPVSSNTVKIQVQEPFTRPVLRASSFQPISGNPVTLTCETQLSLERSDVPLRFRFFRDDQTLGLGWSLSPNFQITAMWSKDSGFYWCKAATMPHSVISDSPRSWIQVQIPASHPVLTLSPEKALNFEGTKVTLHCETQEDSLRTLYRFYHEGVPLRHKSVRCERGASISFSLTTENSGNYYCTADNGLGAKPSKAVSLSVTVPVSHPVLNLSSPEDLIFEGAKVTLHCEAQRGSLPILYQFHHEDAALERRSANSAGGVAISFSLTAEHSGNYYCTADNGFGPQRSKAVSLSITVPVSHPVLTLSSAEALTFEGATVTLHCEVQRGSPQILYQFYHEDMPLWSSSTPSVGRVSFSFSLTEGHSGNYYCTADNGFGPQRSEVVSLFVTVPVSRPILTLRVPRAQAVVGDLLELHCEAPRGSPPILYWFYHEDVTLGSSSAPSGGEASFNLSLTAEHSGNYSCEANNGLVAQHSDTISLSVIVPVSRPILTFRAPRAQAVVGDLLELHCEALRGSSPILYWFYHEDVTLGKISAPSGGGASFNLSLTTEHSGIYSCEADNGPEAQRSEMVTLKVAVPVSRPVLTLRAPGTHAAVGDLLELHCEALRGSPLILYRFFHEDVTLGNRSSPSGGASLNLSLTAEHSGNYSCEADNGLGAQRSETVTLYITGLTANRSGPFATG
Method: The FcRH-binding affinities of IgGs were calculated from association and dissociation rate constants measured using a Biacore 2000 surface plasmon resonance system (BIAcore, Inc.). […] Briefly, for each cycle of kinetic analysis, 5 ul of 100 nM IgG was captured on the chip, two-fold serial dilution of various FcRHs were injected at a flow rate of 20 ul/min for 150 sec. Antigen dissociation was monitored for 180 sec before regeneration. Equilibrium dissociation constants at 25° C. were calculated by fitting the data with a 1:1 Langmuir binding model. Running buffer was PBS with 0.05% Tween-20.

[4] = biological target: T2, human FcRH5 on stably transfected cells …; experiment: Scatchard, 125I-labelled antibody competed with the unlabelled same antibody on BJAB.huFcRH5 cells, 4 C; St. Error 0.046
[5] = biological target: T1, cynomolgus FcRH5 on stably transfected …; experiment: Scatchard, 125I-labelled antibody competed with the unlabelled same antibody on SVT2.cyFcRH5 cells, 4 C; St. Error 0.530
Method: as §1, §2

[6] = biological target: T1, cynomolgus FcRH5 on stably transfected …; experiment: Scatchard, 125I-labelled antibody competed with the unlabelled same antibody on SVT2.cyFcRH5 cells, 4 C; St. Error 0.027
[7] = biological target: T2, human FcRH5 on stably transfected cells …; experiment: Scatchard, 125I-labelled antibody competed with the unlabelled same antibody on BJAB.huFcRH5 cells, 4 C; St. Error 0.007
[8] = biological target: T1, cynomolgus FcRH5 on stably transfected …; experiment: Scatchard, 125I-labelled antibody competed with the unlabelled same antibody on SVT2.cyFcRH5 cells, 4 C; St. Error 0.022
Method: as §1, §2

[9] = biological target: T2, human FcRH5 on stably transfected cells …; experiment: Scatchard, 125I-labelled antibody competed with the unlabelled same antibody on OPM2.huFcRH5 cells, 4 C; St. Error 0.050
Method: as §1, §2

[10] = biological target: T1, cynomolgus FcRH5 on stably transfected …; experiment: Scatchard, 125I-labelled antibody competed with the unlabelled same antibody on SVT2.cyFcRH5 cells, 4 C; St. Error 0.000
Method: as §1, §2

B1: humanized anti-FcRH5 antibody 10A8 version 1 (antibody, human IgG1, V domains shown)
VH: EVQLVESGGGLVQPGGSLRLSCAASGFTFSSYAVSWVRQAPGKGLEWVATISSGGSLTFYLDSVRGRFTISRDNSKNTLYLQMNSLRAEDTAVYYCARPIPDYYALDYWGQGTLVTVSS
VL: DIQMTQSPSSLSASVGDRVTITCKASQDVSTAVAWYQQKPGKAPKLLIYSASYRYTGVPSRFSGSGSGTDFTLTISSLQPEDFATYYCQQHFSSPRTFGQGTKVEIKR
notes: Full-length human IgG1 with a human kappa constant domain; also called hu10A8 v1; hu10A8
[1]
  Kd: 3.04 nM
[2]
  Kd: 1.44 nM

B2: murine anti-FcRH5-7D11 monoclonal antibody (antibody, V domains shown)
VH: EVQLVESGGGLVQPGGSLKLSCAASGFTFSSYGMSWVRQTPDKRLELVATITRNGGTTYYLDSVKGRFTISRDNAKNTLYLQMSSLKSEDTAMYYCARGPIYYDYGYAMDYWGQGTTVTVSS
VL: DILLTQSPAILSVSPGERVSFSCRSSQSIGTNIHWYQQRTNGSPRLLIKFASESLSGIPSRFSGSGSGTDFTLSINSVESEDFADYYCQQSNSWPLTFGAGTKVEIK
notes: Murine IgG from a hybridoma; parent of ch7D11; also called 7D11.1.1; mu7D11
[3]
  Kd: 6 nM

B3: murine anti-FcRH5 (10A8) monoclonal antibody (antibody, V domains shown)
VH: EVQLVESGGGLVKPGGSLKISCAASGFTFSSYAVSWVRQTPEKRLEWVATISSGGSLTFYLDSVRGRFTISRDNAKNTLYLQMSSLRSEDTAMYYCARPIPDYYALDYWGQGTSVTVSS
VL: DIVMTQSHKFMSTSVRDRVSITCKASQDVSTAVAWYQQKPGQSPKLLIYSASYRYTGVPDRFTGSGSGTDFTFTISSVQAEDLAVYYCQQHFSSPRTFGGGTKVEIKR
notes: Murine IgG from a hybridoma, detected with anti-mouse IgG1 in FACS; also called mu10A8; MA10A8
[4]
  Kd: 0.44 nM
[5]
  Kd: 2.74 nM

B4: murine anti-FcRH5-6H1 monoclonal antibody (antibody)
chain 1: B3 VL
chain 2: B3 VH
[6]
  Kd: 0.38 nM
[7]
  Kd: 0.19 nM

B5: chimeric anti-human FcRH5 antibody 10A8 (antibody)
heavy: not shown
light: DIVMTQSHKFMSTSVRDRVSITCKASQDVSTAVAWYQQKPGQSPKLLIYSASYRYTGVPDRFTGSGSGTDFTFTISSVQAEDLAVYYCQQHFSSPRTFGGGTKVEIKRTVAAPSVFIFPPSDEQLKSGTASVVCLLNNFYPREAKVQWKVDNALQSGNSQESVTEQDSKDSTYSLSSTLTLSKADYEKHKVYACEVTHQGLSSPVTKSFNRGEC
notes: Murine 10A8 variable domains on human IgG1 and kappa constant domains; also called ch10A8; chMAFcRH5 (10A8)
[8]
  Kd: 0.98 nM

B6: cysteine engineered chimeric anti-FcRH5 10A8, heavy chain A118C (antibody, human IgG1, kappa, name in EU numbering)
heavy: not shown
light: B5 light
notes: It is built here from the ch10A8 chains plus the stated A118C change; also called thio-ch10A8.HC; thio-ch10A8-HC(A118C)
[9]
  Kd: 0.85 nM
[10]
  Kd: 1.57 nM
